The supplement of paper PMC10126150
± gives the standard deviation of the averaged measurements.

Test system: ATP
Assay: switch fluorescence ratio, 500 uM ATP over buffer (Cy3 cluster intensity, sum of 5 cycles each) (fold (ratio)); higher = stronger signal-on switching upon ATP binding; sequences stand for … in TCGTCGGCAGCGTCAGATGTGTATAAGAGACAGTTTTTTTTTTTTTTTTTTTTTTTTT…TC
Details: aptamer strand: ATP DNA aptamer (quencher-CACCTGGGGGAGTATTGCGGAGGAAGG + anchor), 100 nM annealed; ATP concentration: 500 uM
Outline: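 Imaging in selection buffer was followed by imaging after 15 min with 500 uM ATP at 22 °C, for Cy3-labelled switching-strand clusters annealed to 100 nM quencher-labelled ATP aptamer on a modified Illumina MiSeq flow-cell. Five of these buffer/ATP cycles ran, separated by NaOH stripping and re-annealing. The fluorescence ratio per cluster is summed target-cycle over summed buffer-cycle Cy3 intensity, averaged per switch-domain sequence; clusters outside 100-1000 RFU were removed.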
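Further: ATP exposure 15 min at 22 °C before imaging.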

## TGGCTCCCGC
  switch fluorescence ratio: 1.089 ± 0.0041

## TATTTGGGTA
  switch fluorescence ratio: 0.987 ± 0.026

## TTAGGGTTGT
  switch fluorescence ratio: 1 ± 0.023

## TATGGTGTAG
  switch fluorescence ratio: 1 ± 0.043

## TAGAGTAGAT
  switch fluorescence ratio: 1.01 ± 0.02

## CATGTTTTTC
  switch fluorescence ratio: 0.982 ± 0.033

## TTAAATGGGG
  switch fluorescence ratio: 0.978 ± 0.011

## ATTTGTTGT
  switch fluorescence ratio: 0.973 ± 0.052

## TCTGGGGCTG
  switch fluorescence ratio: 0.969 ± 0.016

## TTATGCTTTT
  switch fluorescence ratio: 1.0043 ± 0.00054

## AAGAGTGTCG
  switch fluorescence ratio: 0.921 ± 0.056

## AGGAGGCGTT
  switch fluorescence ratio: 0.992 ± 0.029

## AGGGCGGATT
  switch fluorescence ratio: 1.01 ± 0.031

## AAGCAGGTTA
  switch fluorescence ratio: 1.01 ± 0.0062

## GAGGGGGGCA
  switch fluorescence ratio: 0.977 ± 0.03

## GGCTTACAGT
  switch fluorescence ratio: 0.9941 ± 0.0061

## TAATTTTAAA
  switch fluorescence ratio: 0.988 ± 0.018

## AGAGTTGTGG
  switch fluorescence ratio: 0.982 ± 0.024

## AGGCACGGGG
  switch fluorescence ratio: 0.9932 ± 0.0087

## TTGTTGTTAG
  switch fluorescence ratio: 1.0094 ± 0.00094

## CAGGTTATAT
  switch fluorescence ratio: 1.03 ± 0.028

## CCGCATTTGT
  switch fluorescence ratio: 2.68 ± 2.4

## GTGAGAGGGT
  switch fluorescence ratio: 0.998 ± 0.029

## CTTGTTTGGC
  switch fluorescence ratio: 1.02 ± 0.045

## TACGCACGTA
  switch fluorescence ratio: 1.31 ± 0.17

## GAAGTTTTTG
  switch fluorescence ratio: 0.993 ± 0.017

## GTGTTTGGGA
  switch fluorescence ratio: 0.997 ± 0.033

## TTAGTATTGG
  switch fluorescence ratio: 1.02 ± 0.019

## CAATTTCCCG
  switch fluorescence ratio: 1.01 ± 0.02

## TTTTAGGAAT
  switch fluorescence ratio: 0.997 ± 0.027

## ATGTCCGGGT
  switch fluorescence ratio: 1.03 ± 0.032

## GAGACGTTGG
  switch fluorescence ratio: 0.985 ± 0.014

## ATGCTAAAAG
  switch fluorescence ratio: 1.008 ± 0.0096

## GATTGATGTT
  switch fluorescence ratio: 1.013 ± 0.009

## TGATGGGAGC
  switch fluorescence ratio: 0.982 ± 0.014

## GTGGAACGTA
  switch fluorescence ratio: 0.976 ± 0.015

## CGGTAGGATT
  switch fluorescence ratio: 1.04 ± 0.014

## ATTAACTGCT
  switch fluorescence ratio: 0.9932 ± 0.0058

## TATTTTAGGG
  switch fluorescence ratio: 0.985 ± 0.029

## CGGGTCGTGG
  switch fluorescence ratio: 0.996 ± 0.024

## AAAAATCACT
  switch fluorescence ratio: 1.04 ± 0.039

## TCATACGTCG
  switch fluorescence ratio: 1.03 ± 0.036

## CGGGAGGGGA
  switch fluorescence ratio: 1 ± 0.025

## TTTCCGTGAT
  switch fluorescence ratio: 1.918 ± 0.013

## GCTCTTTTGG
  switch fluorescence ratio: 0.997 ± 0.019

## TTACAGCTAG
  switch fluorescence ratio: 1.01 ± 0.056

## GGAAACTAGG
  switch fluorescence ratio: 1.016 ± 0.003

## TGATTGTTAT
  switch fluorescence ratio: 1.029 ± 0.0016

## TCTGGGACGT
  switch fluorescence ratio: 0.9824 ± 0.0033

## CATTTCACGC
  switch fluorescence ratio: 1.0996 ± 0.00041

## ACCGCTGTGG
  switch fluorescence ratio: 1.06 ± 0.019

## GAGAGTGACA
  switch fluorescence ratio: 1.01 ± 0.062

## CCGGAAGCAG
  switch fluorescence ratio: 3.95 ± 0.66

## TTTTTATTCT
  switch fluorescence ratio: 1.02 ± 0.02

## CCAAGGAGGG
  switch fluorescence ratio: 0.999 ± 0.017

## TGGGAGTTCA
  switch fluorescence ratio: 0.971 ± 0.01

## CTATACTTGG
  switch fluorescence ratio: 0.98716 ± 0.00098

## CGGGTTCCGA
  switch fluorescence ratio: 0.998 ± 0.024

## ACAGACTATA
  switch fluorescence ratio: 1.094 ± 0.0097

## CTTAGACGTC
  switch fluorescence ratio: 0.948 ± 0.043

## GGCTTGCTAG
  switch fluorescence ratio: 1.001 ± 0.0046

## AACGTAGTGT
  switch fluorescence ratio: 1.01 ± 0.047

## TTTGTTTTCT
  switch fluorescence ratio: 1.01 ± 0.032

## TCAGGGGAAC
  switch fluorescence ratio: 1.06 ± 0.07

## CGGGGGATCT
  switch fluorescence ratio: 1.01 ± 0.038

## ACAATGAAGA
  switch fluorescence ratio: 1.01 ± 0.039

## CGTTGGGTTC
  switch fluorescence ratio: 0.969 ± 0.013

## TTACTGTGTT
  switch fluorescence ratio: 1 ± 0.034

## TTGAGGGTTG
  switch fluorescence ratio: 0.987 ± 0.037

## GTTTCTAGCT
  switch fluorescence ratio: 0.969 ± 0.028

## CAGGGGTGCG
  switch fluorescence ratio: 0.991 ± 0.013

## TATGTCATAC
  switch fluorescence ratio: 1.14 ± 0.058

## GAGGGCGCTG
  switch fluorescence ratio: 0.973 ± 0.011

## ATAGGCACAT
  switch fluorescence ratio: 1.03 ± 0.029

## TAGGTGGTTT
  switch fluorescence ratio: 0.989 ± 0.026

## TCTATGGGGG
  switch fluorescence ratio: 0.986 ± 0.019

## TGCAGGGTGC
  switch fluorescence ratio: 1.04 ± 0.016

## AACTGGAGGG
  switch fluorescence ratio: 0.969 ± 0.042

## GGGGGTCCTA
  switch fluorescence ratio: 0.977 ± 0.0099

## TGGGTTTTTT
  switch fluorescence ratio: 1.01 ± 0.048

## TTTAGTCCCC
  switch fluorescence ratio: 1.06 ± 0.046

## GTTTAAGGGC
  switch fluorescence ratio: 0.988 ± 0.032

## ATAGTGGTTT
  switch fluorescence ratio: 1.02 ± 0.021

## AACTATCTTG
  switch fluorescence ratio: 1 ± 0.0027

## TTGGGATGTG
  switch fluorescence ratio: 0.986 ± 0.053

## AGTCCTGGCC
  switch fluorescence ratio: 0.999 ± 0.022

## GTTGGGGCAG
  switch fluorescence ratio: 0.961 ± 0.034

## TAGGATGCAG
  switch fluorescence ratio: 0.957 ± 0.042

## GGAAATGGGT
  switch fluorescence ratio: 1.05 ± 0.036

## CGGGGGCTCC
  switch fluorescence ratio: 1.02 ± 0.021

## AGTTTTTTAG
  switch fluorescence ratio: 0.98 ± 0.015

## TGTAGGAAGT
  switch fluorescence ratio: 0.992 ± 0.017

## ATTGGTAGGG
  switch fluorescence ratio: 0.9858 ± 0.004

## TACAACATTT
  switch fluorescence ratio: 1.06 ± 0.015

## TAGGGACGTT
  switch fluorescence ratio: 0.988 ± 0.013

## TCGAAGCCTA
  switch fluorescence ratio: 1.17 ± 0.02

## CACCATAGTG
  switch fluorescence ratio: 1.03 ± 0.02

## GTCGGTTTTT
  switch fluorescence ratio: 0.972 ± 0.022

## TGGGGTGGGT
  switch fluorescence ratio: 1 ± 0.039

## TTCGATAATC
  switch fluorescence ratio: 1.15 ± 0.16

## GCGTGATAGA
  switch fluorescence ratio: 1.04 ± 0.017

## TTTGATAAAG
  switch fluorescence ratio: 1.03 ± 0.092

## TAACGGGTCG
  switch fluorescence ratio: 0.937 ± 0.06

## TGCGACCATT
  switch fluorescence ratio: 1.03 ± 0.04

## GCTATGCCTA
  switch fluorescence ratio: 0.997 ± 0.023

## AGGTTTGGTT
  switch fluorescence ratio: 1.01 ± 0.04

## GACCGAGCGT
  switch fluorescence ratio: 1.1 ± 0.06

## CTTAGTAGT
  switch fluorescence ratio: 0.973 ± 0.024

## TTAAAGGTAA
  switch fluorescence ratio: 1.018 ± 0.0094

## AGCTGATCTA
  switch fluorescence ratio: 0.986 ± 0.022

## TTTGATCTTG
  switch fluorescence ratio: 1.01 ± 0.013

## CGTGATGAGG
  switch fluorescence ratio: 0.989 ± 0.028

## ATGGGGGGGC
  switch fluorescence ratio: 1.01 ± 0.022

## GTCTCGTTCC
  switch fluorescence ratio: 1.09 ± 0.14

## CCTTATCAGG
  switch fluorescence ratio: 1.04 ± 0.02

## TTTTCCTGGA
  switch fluorescence ratio: 1.03 ± 0.066

## CACAGGTGCG
  switch fluorescence ratio: 2.23 ± 0.08

## AACGGATTCT
  switch fluorescence ratio: 1.04 ± 0.016

## TTGGTATCTT
  switch fluorescence ratio: 0.999 ± 0.025

## TGTTTATCGG
  switch fluorescence ratio: 0.998 ± 0.041

## CCGAGCTTGA
  switch fluorescence ratio: 1.61 ± 0.085

## AAAAGGTCGT
  switch fluorescence ratio: 0.999 ± 0.019

## TATGTTGTGT
  switch fluorescence ratio: 0.96 ± 0.037

## ATTTGAAGTA
  switch fluorescence ratio: 1.01 ± 0.04

## ATGGGTAGTT
  switch fluorescence ratio: 0.977 ± 0.022

## ATTTAATCCT
  switch fluorescence ratio: 1.09 ± 0.038

## ATACTTTATT
  switch fluorescence ratio: 1.09 ± 0.034

## CGAACTCCTG
  switch fluorescence ratio: 1.05 ± 0.014

## GCGAGGGTCG
  switch fluorescence ratio: 1.01 ± 0.043

## TCCATGGGGT
  switch fluorescence ratio: 0.9836 ± 0.0079

## ATATTAAGAT
  switch fluorescence ratio: 0.988 ± 0.028

## TGGTTATAAT
  switch fluorescence ratio: 0.992 ± 0.024

## CGTCTAAGTC
  switch fluorescence ratio: 1.01 ± 0.046

## GTGCGCCGGT
  switch fluorescence ratio: 1.02 ± 0.036

## AATTTGGGAA
  switch fluorescence ratio: 0.999 ± 0.017

## TAAAGGACTT
  switch fluorescence ratio: 1.05 ± 0.087

## TGTTGTCTTT
  switch fluorescence ratio: 1.03 ± 0.12

## TAGTTTCGAT
  switch fluorescence ratio: 0.977 ± 0.019

## GAAGACGTTA
  switch fluorescence ratio: 1.04 ± 0.023

## TTATGGTGT
  switch fluorescence ratio: 1.0044 ± 0.00076

## GCACCAGGGG
  switch fluorescence ratio: 1.81 ± 0.81

## CATGTATAGG
  switch fluorescence ratio: 0.987 ± 0.032

## TAGAACATGG
  switch fluorescence ratio: 0.964 ± 0.061

## GCTCCCAGGA
  switch fluorescence ratio: 1.92 ± 0.026

## TAGGCGGATA
  switch fluorescence ratio: 1.008 ± 0.0023

## TGGTTTATTC
  switch fluorescence ratio: 0.986 ± 0.051

## GTAGTTTGAG
  switch fluorescence ratio: 0.996 ± 0.015

## ACTGTGTTAT
  switch fluorescence ratio: 0.983 ± 0.02

## AGGTGGGGTT
  switch fluorescence ratio: 0.996 ± 0.051

## GGAGGCTGAG
  switch fluorescence ratio: 0.993 ± 0.011

## TCGGGGCTCC
  switch fluorescence ratio: 2.87 ± 2.6

## GGTTTATGGT
  switch fluorescence ratio: 0.967 ± 0.019

## TTTTTCCCGG
  switch fluorescence ratio: 1.17 ± 0.23

## GTTGTTGCTT
  switch fluorescence ratio: 0.982 ± 0.029

## CTAGCATGGG
  switch fluorescence ratio: 0.999 ± 0.029

## CTCACTATGA
  switch fluorescence ratio: 0.99239 ± 0.0009

## GTATGGGGCA
  switch fluorescence ratio: 1 ± 0.029
